Measurements reported in the Human Domainome abundance scans (Beltran et al. 2025).
± gives the uncertainty stated by the source.

B1: TGF-beta-activated kinase 1 and MAP3K7-binding protein 3, residues 12 to 50; numbered along this chain, Q8N5C8 (parent)
chain: VLHDLRQRFPEIPEGVVSQCMLQNNNNLEACCRALSQES

Variants of: B1
Test: abundance fitness (aPCA) (normalised: wild type 0, dead -1); higher = more abundant; growth selection in yeast, the domain comes from the species named
Conditions: Homo sapiens

| Variant | abundance fitness |
| --- | --- |
| S18F | -0.17 ± 0.089 |
| S18V | 0.218 ± 0.039 |
| S18K | 0.278 ± 0.056 |
| S18G | -0.399 ± 0.038 |
| S18Q | 0.268 ± 0.043 |
| S18P | -0.939 ± 0.13 |
| S18D | -0.434 ± 0.081 |
| S18I | -0.035 ± 0.092 |
| S18A | 0.13 ± 0.039 |
| S18H | 0.177 ± 0.086 |
| S18C | -0.336 ± 0.092 |
| S18T | 0.136 ± 0.043 |
| S18M | 0.222 ± 0.045 |
| S18L | 0.23 ± 0.04 |
| S18E | 0.191 ± 0.041 |
| S18Y | -0.196 ± 0.19 |
| S18R | 0.345 ± 0.035 |
| Q7C | -0.658 ± 0.14 |
| Q7W | -1.08 ± 0.16 |
| Q7E | 0.072 ± 0.046 |
| Q7D | -0.083 ± 0.1 |
| Q7I | -0.077 ± 0.07 |
| Q7R | 0.103 ± 0.038 |
| Q7N | -0.225 ± 0.062 |

| Variant | abundance fitness |
| --- | --- |
| Q7S | 0.026 ± 0.061 |
| Q7V | -0.135 ± 0.047 |
| Q7T | -0.089 ± 0.052 |
| Q7F | -0.634 ± 0.1 |
| Q7M | 0.064 ± 0.064 |
| Q7G | -0.413 ± 0.042 |
| Q7P | -1.02 ± 0.17 |
| Q7K | 0.003 ± 0.12 |
| V1D | 0.022 ± 0.13 |
| V1R | -0.291 ± 0.4 |
| V1W | -0.361 ± 0.14 |
| V1M | 0.19 ± 0.065 |
| V1F | -0.228 ± 0.13 |
| V1S | -0.048 ± 0.12 |
| V1E | 0.043 ± 0.055 |
| V1G | -0.193 ± 0.056 |
| V1Q | 0.235 ± 0.29 |
| V1L | 0.311 ± 0.09 |
| V1A | -0.38 ± 0.085 |
| V1N | 0.252 ± 0.17 |
| V17G | -0.795 ± 0.055 |
| V17N | -0.468 ± 0.46 |
| V17C | -0.566 ± 0.1 |
| V17F | -0.65 ± 0.26 |

| Variant | abundance fitness |
| --- | --- |
| V17S | -0.815 ± 0.093 |
| V17L | 0.084 ± 0.042 |
| V17H | -0.7 ± 0.21 |
| V17I | 0.266 ± 0.056 |
| V17T | -1.07 ± 0.2 |
| V17A | -0.647 ± 0.065 |
| V17M | -0.395 ± 0.15 |
| V17R | -0.836 ± 0.059 |
| V17P | -0.568 ± 0.14 |
| V17K | -0.955 ± 0.14 |
| V17Q | -0.81 ± 0.14 |
| V17D | -0.624 ± 0.11 |
| V17Y | -0.811 ± 0.13 |
| E14H | 0.117 ± 0.19 |
| E14D | -0.308 ± 0.1 |
| E14G | -0.829 ± 0.066 |
| E14I | -0.246 ± 0.064 |
| E14M | -0.377 ± 0.11 |
| E14S | -0.416 ± 0.044 |
| E14P | -0.143 ± 0.072 |
| E14L | -0.142 ± 0.041 |
| E14V | -0.24 ± 0.036 |
| E14C | -0.613 ± 0.1 |
| E14F | -1.02 ± 0.3 |

| Variant | abundance fitness |
| --- | --- |
| E14K | -0.831 ± 0.13 |
| E14Y | -0.256 ± 0.18 |
| E14R | -0.668 ± 0.052 |
| E14Q | -0.255 ± 0.062 |
| E14T | -0.549 ± 0.093 |
| E14N | -0.738 ± 0.14 |
| H3K | 0.09 ± 0.06 |
| H3N | -0.14 ± 0.24 |
| H3S | 0.066 ± 0.059 |
| H3T | -0.019 ± 0.045 |
| H3F | -0.342 ± 0.13 |
| H3Y | -0.391 ± 0.18 |
| H3I | -0.096 ± 0.18 |
| H3G | -0.078 ± 0.043 |
| H3D | -0.066 ± 0.094 |
| H3P | -0.483 ± 0.061 |
| H3M | -0.023 ± 0.059 |
| H3Q | 0.266 ± 0.047 |
| H3E | 0.201 ± 0.046 |
| H3C | -0.191 ± 0.083 |
| H3R | 0.088 ± 0.045 |
| H3V | -0.331 ± 0.049 |
| F9L | -0.935 ± 0.093 |
| F9D | -0.616 ± 0.16 |

| Variant | abundance fitness |
| --- | --- |
| F9M | -0.428 ± 0.092 |
| F9V | -0.865 ± 0.087 |
| F9I | -0.784 ± 0.33 |
| F9S | -0.597 ± 0.096 |
| F9K | -0.544 ± 0.13 |
| F9G | -0.818 ± 0.061 |
| F9N | -0.559 ± 0.17 |
| F9T | -0.798 ± 0.15 |
| F9R | -0.751 ± 0.057 |
| F9C | -0.65 ± 0.067 |
| F9Y | -0.04 ± 0.26 |
| F9E | -0.682 ± 0.057 |
| F9W | -0.964 ± 0.16 |
| D4P | -0.838 ± 0.14 |
| D4Y | -0.054 ± 0.18 |
| D4E | 0.248 ± 0.045 |
| D4R | -0.112 ± 0.038 |
| D4K | 0.109 ± 0.049 |
| D4T | 0.02 ± 0.048 |
| D4F | 0.164 ± 0.097 |
| D4L | 0.116 ± 0.045 |
| D4Q | 0.167 ± 0.052 |
| D4V | 0.127 ± 0.043 |
| D4N | -0.075 ± 0.068 |

| Variant | abundance fitness |
| --- | --- |
| D4C | -0.053 ± 0.054 |
| D4W | 0.017 ± 0.049 |
| D4A | 0.013 ± 0.051 |
| D4S | -0.118 ± 0.042 |
| D4M | -0.039 ± 0.14 |
| D4G | -0.676 ± 0.055 |
| I12V | -0.042 ± 0.042 |
| I12Q | -0.43 ± 0.073 |
| I12T | -0.276 ± 0.15 |
| I12R | -0.788 ± 0.077 |
| I12A | -0.533 ± 0.068 |
| I12S | -0.825 ± 0.12 |
| I12M | -0.12 ± 0.059 |
| I12D | -1.04 ± 0.24 |
| I12L | -0.094 ± 0.046 |
| I12E | -0.619 ± 0.076 |
| I12K | -0.577 ± 0.082 |
| I12G | -0.981 ± 0.091 |
| I12H | -0.209 ± 0.17 |
| I12W | -0.737 ± 0.11 |
| I12C | -0.467 ± 0.078 |
| L2I | -0.049 ± 0.07 |
| L2E | -0.588 ± 0.15 |
| L2V | -0.531 ± 0.065 |

| Variant | abundance fitness |
| --- | --- |
| L2W | -0.134 ± 0.049 |
| L2Q | -0.276 ± 0.076 |
| L2A | -0.187 ± 0.058 |
| L2R | -0.464 ± 0.047 |
| L2G | -0.583 ± 0.069 |
| L2P | -0.246 ± 0.27 |
| L2N | -0.058 ± 0.1 |
| L2T | -0.194 ± 0.14 |
| L2F | 0.211 ± 0.12 |
| L2H | 0.077 ± 0.1 |
| L2S | -0.221 ± 0.12 |
| L22K | 0.264 ± 0.068 |
| L22F | -0.188 ± 0.06 |
| L22M | 0.041 ± 0.056 |
| L22E | 0.164 ± 0.055 |
| L22C | -0.377 ± 0.079 |
| L22S | -0.045 ± 0.044 |
| L22Q | 0.057 ± 0.067 |
| L22A | 0.173 ± 0.039 |
| L22H | 0.023 ± 0.055 |
| L22D | -0.06 ± 0.073 |
| L22R | 0.152 ± 0.041 |
| L22G | -0.266 ± 0.039 |
